In US20100278834A1 one finds Reciprocal neutralising titre of culture supernatant (reciprocal titre), IC50, neutralisation of retroviral pseudotypes and Inhibition of binding (%) data, which are given here for eight molecules.

B1: FLD132 (antibody, V domains shown)
VH: EVQLVQSGAELKMPGESLKISCKASGYTFTNYWIGWVRQTPGKGLEWMGIIFPPDSQTSYSPSFQGQVTFSVDNSISVAYIQWSSLKASDTAIYYCARSGIFDWSAPLVEAFDIWGQGTVVTVSS
VL: DIQLTQSPSFLSASVGDGVTITCRASQDIYIYLAWYQQKPGKAPKLLIYAASTLQGGVPSRFSGSGSGTEFTLTINNLQPEDFATYFCQQLNGYPLTFGGGTKVEIK
B2: FLD127 (antibody, V domains shown)
VH: QVQLVESGGGVVQPGRSLRLSCAASGFTFSSYGMHWVRQAPGKGLEWVAVIWYDGDNKYYGDSVKGRFTISRDNSKNTLFLQMNSLRAEDTAVYYCAKDTADHGDYVDLGFFDAWGQGTLVTVSS
VL: DIQMTQSPSSVSASVGDRVTITCRASQDVSTWLAWYQLKPGKAPKLLIYAASSLQSGVPSRFSGSGSGTDFTLTVSSLQPEDFATYYCQQANSFPFTFGPGTKVDIK
B3: FLD93 (antibody, V domains shown)
VH: WWQLVQSGAEVKKPGSSVKVSCKASGGTFSSYDISWVRQAPGQGLEWMGGIIPIYGTANYAQKFQGRVTITADESTSTAYMELSSLRSEDTAVYYCARAGGDSSGYYGALGRFFQHWGQGTLVTVSS
VL: VIWMTQSPSLLSASTGDRVTISCRMSQGISSYLAWYQQKPGKAPELLIHTAYTLKSGVPSRFSGSGSGKDFTLTISGLQSEDFATYYCQQYYSFPYTFGQGTKVEIK
B4: FLD122 (antibody, V domains shown)
VH: QFQLVQSGPEVKKPGTSVKVSCKASGYTSTTYGISWVRQVPGQGLEWMGWINPYNGNPHYGQKFQGRVTLTRDTSTNTAYLEILSLRSDDTAVYYCARDGWGQQLVPYYFDYWGQGTLVTVSS
VL: DIVMTQSPLSLPVTPGEPASISCRASQSLLHSNGYNYLDWYLQKPGQSPQLLIQLGSTRASGVPDRFSGSGSGTDFTLEISRVEAEDVGVYYCMQALQLPLAFGQGTRLEIK
B5: FLD129 (antibody, V domains shown)
VH: EVQLVESGGGLVQPGRSLRLSCAASGFTFSDFWMSWVRQAPGKGLEWVANIDQDGNERFYADSVKGRFTISRDNAKNSLYLQMTSLRADDTAVYYCARDGREGYFYGSGSFYNLKGLNWGQGTLLTVSS
VL: QSVLTQPPSVSAAPGQRVTISCSGTSSNIGKNYVSWYQQLPGAAPKLLIYDNDKRPSGIPDRFSGSKSGTSATLGITGLQTGDEADYYCGTWDSSLSVGMFGGGTRLTVL
B6: FLA3.14 (antibody, V domains shown)
VH: EVQLVQSGAEVKKPGESLKISCQASGYSFTSRWIGWVRQMPGKGLEWVGFIYPSDSDVRYSPSFRGQVTISADKSISTAYLQWSSLKASDTAMYFCARLGGNKDYGDYLWYFDLWGRGALVTVSS
VL: EIVMTQSPDTLSVSPGERATLSCRASQSVNRRLAWYQQKPGQAPRLLIHDASTRATGIPARFSGSGSGTEFTLTISSLQSEDFAVYYCQQYDNWLSFGQGTRLEIK
B7: FLD84 (antibody, V domains shown)
VH: QVQLQESGPGLVKPSETLSLICAVSGASISSSYWSWIRQPPGKGLEWIGYIYYSGVTKYNPSLKSRVTLSVDTSKNHFSLKLSYVTAADTAVYYCARNLPDIAVVTAVQDATPVWFDPWGPGTLVSVSS
VL: DIQLTQSPSSLSASVGDRVTITCRASQGIITYLNWYQQKPGKAPKLLIYATYSLQNGVPSRFSGSGSGTDFTLTISSLQPEDFATYYCQQSYSSLMFTFGQGTKLDIK
B8: FLA5.10 (antibody, V domains shown)
VH: QVQLVQSGAEVKEPGSAMKVSCKASGGTFSSDAFCWVRQAPGRGLEWMGGIIPVFQTANYGPNFQGRVTISADVYTTTLYLELSGLTSEDTAVYFCARSGDGYNYYFPLWGQGTLVTVSS
VL: DIQMTQSPSTLSGSVGDRVTITCRASQNIGPWLAWYQQESGKAPKLLISRASILESGVPSRFSGTGTGTEFTLTISSLQPDDFATYYCQHYNAYWGTFGQGTKVEIN

The target in one assay is hemagglutinin of A/Indonesia/5/05 (H5N1, clade 2) (influenza A virus A/Indonesia/5/05 (H5N1)). As to the kind of experiment: cell-based or functional assay.
Take B1: the Reciprocal neutralising titre of culture supernatant (reciprocal titre) is less than 8.
Same read-out and setting: for B2 the value was less than 8.
B3 registered an IC50, neutralisation of retroviral pseudotypes of 0.059 µg/mL and a Reciprocal neutralising titre of culture supernatant (reciprocal titre) of 406.
For B4 the same measures were 0.004 µg/mL and 362.
In turn, B5 registered an IC50, neutralisation of retroviral pseudotypes of 0.678 µg/mL and a Reciprocal neutralising titre of culture supernatant (reciprocal titre) of less than 8.
B6 registered an IC50, neutralisation of retroviral pseudotypes of 0.012 µg/mL.
Molecule B7 gave an IC50, neutralisation of retroviral pseudotypes of 0.03 µg/mL and a Reciprocal neutralising titre of culture supernatant (reciprocal titre) of 102.

The target of another assay is hemagglutinin of A/Vietnam/1203/04 (H5N1) (influenza A virus A/Vietnam/1203/04 (H5N1)). In words: cell-based or functional assay.
B1 displayed an IC50, neutralisation of retroviral pseudotypes of 0.001 µg/mL and a Reciprocal neutralising titre of culture supernatant (reciprocal titre) of 1024.
As for B2, the IC50, neutralisation of retroviral pseudotypes worked out at 0.013 µg/mL and the Reciprocal neutralising titre of culture supernatant (reciprocal titre) was found to be 81.
B3 gave an IC50, neutralisation of retroviral pseudotypes of 0.048 µg/mL and a Reciprocal neutralising titre of culture supernatant (reciprocal titre) of 40.
For B4 the same measures were 0.005 µg/mL and 40.
As to B5, the IC50, neutralisation of retroviral pseudotypes turned out to be 0.0017 µg/mL and the Reciprocal neutralising titre of culture supernatant (reciprocal titre) was determined as 323.
In the case of B8, the IC50, neutralisation of retroviral pseudotypes stood at 0.024 µg/mL.
The same measure, in the same setting: the result for B6 reads 0.065 µg/mL.
B7 yielded an IC50, neutralisation of retroviral pseudotypes of 0.042 µg/mL and a Reciprocal neutralising titre of culture supernatant (reciprocal titre) of 16.

The next assay has as its target hemagglutinin of H5N1 clade 1 strain A/Hong Kong/213/03 (influenza A virus A/Hong Kong/213/03 (H5N1)). As to the kind of experiment: cell-based or functional assay.
B1 had an IC50, neutralisation of retroviral pseudotypes of 0.0005 µg/mL.
Molecule B2 gave an IC50, neutralisation of retroviral pseudotypes of 0.75 µg/mL.
The molecule B3 had an IC50, neutralisation of retroviral pseudotypes of 0.011 µg/mL.
As for B4, the IC50, neutralisation of retroviral pseudotypes amounted to 0.002 µg/mL.
With B5, the IC50, neutralisation of retroviral pseudotypes turned out to be 0.0005 µg/mL.
For the molecule B8, the IC50, neutralisation of retroviral pseudotypes was found to be 0.0025 µg/mL.
In turn, B6 returned an IC50, neutralisation of retroviral pseudotypes of 0.033 µg/mL.
For B7, the IC50, neutralisation of retroviral pseudotypes was 0.014 µg/mL.

For another assay, the target named is hemagglutinin of H5N1 clade 1 strain HK/491/97 (influenza A virus HK/491/97 (H5N1)). In words: cell-based or functional assay.
Regarding B1, the Reciprocal neutralising titre of culture supernatant (reciprocal titre) turned out to be 2048.
With B2, the Reciprocal neutralising titre of culture supernatant (reciprocal titre) was determined as 102.
Take B3: the Reciprocal neutralising titre of culture supernatant (reciprocal titre) came to 20.
For B4, the Reciprocal neutralising titre of culture supernatant (reciprocal titre) was found to be 161.
As for B5, the Reciprocal neutralising titre of culture supernatant (reciprocal titre) is 1450.
In turn, B7 had a Reciprocal neutralising titre of culture supernatant (reciprocal titre) of 40.

The target of another assay is hemagglutinin of H5N1 clade 1 strain VN/1194.04 (influenza A virus VN/1194.04 (H5N1)). In words: cell-based or functional assay.
For B1, the IC50, neutralisation of retroviral pseudotypes was 0.0016 µg/mL.
Molecule B2 gave an IC50, neutralisation of retroviral pseudotypes of 0.019 µg/mL.
For B3, the IC50, neutralisation of retroviral pseudotypes stood at 0.022 µg/mL.
Same read-out and setting: the result for B4 reads 0.006 µg/mL.
In turn, B5 yielded an IC50, neutralisation of retroviral pseudotypes of 0.0012 µg/mL.
In turn, B8 displayed an IC50, neutralisation of retroviral pseudotypes of 0.026 µg/mL.
B6 came in with an IC50, neutralisation of retroviral pseudotypes of 0.086 µg/mL.
The molecule B7 displayed an IC50, neutralisation of retroviral pseudotypes of 0.017 µg/mL.

The target in the next assay is hemagglutinin of H5N1 clade 2.2 strain TY/TY/1/05 (influenza A virus TY/TY/1/05 (H5N1)). In words: cell-based or functional assay.
Molecule B1 showed an IC50, neutralisation of retroviral pseudotypes of 0.001 µg/mL.
Take B3: the IC50, neutralisation of retroviral pseudotypes was 0.013 µg/mL.
B4 registered an IC50, neutralisation of retroviral pseudotypes of 0.008 µg/mL.
With B5, the IC50, neutralisation of retroviral pseudotypes stood at 0.006 µg/mL.
The same measure, in the same setting: for B6 the value was 0.076 µg/mL.
For B7, the IC50, neutralisation of retroviral pseudotypes was 0.032 µg/mL.

In the next assay the target is hemagglutinin of H5N1 clade 2.2 strain WS/Mong/244/05 (influenza A virus WS/Mong/244/05 (H5N1)). In words: cell-based or functional assay.
On to B1, for which the IC50, neutralisation of retroviral pseudotypes came out at 0.001 µg/mL.
B3 gave an IC50, neutralisation of retroviral pseudotypes of 0.011 µg/mL.
B4 gave an IC50, neutralisation of retroviral pseudotypes of 0.006 µg/mL.
Same read-out and setting: the result for B5 reads 0.003 µg/mL; that for B6, 0.067 µg/mL; that for B7, 0.03 µg/mL.

A further assay deals with hemagglutinin of H5N1 clade 2.3 strain Anhui/1/05 (influenza A virus Anhui/1/05 (H5N1)). In words: cell-based or functional assay.
Regarding B1, the IC50, neutralisation of retroviral pseudotypes worked out at 1.8 µg/mL.
B4: the IC50, neutralisation of retroviral pseudotypes is 0.019 µg/mL.
Still for that read-out and setting: the result for B5 reads 0.016 µg/mL.
As to B6, the IC50, neutralisation of retroviral pseudotypes turned out to be 0.172 µg/mL.
B7 came in with an IC50, neutralisation of retroviral pseudotypes of 0.118 µg/mL.

The next assay deals with H5 hemagglutinin (HA) of H5N1 influenza A virus, strain not stated (influenza A virus (H5N1), strain not stated). As to the kind of experiment: cross-inhibition of binding to HA; competitor: FLD194.
As to B1, the Inhibition of binding (%) is 52%.
B2 showed an Inhibition of binding (%) of 0%.
B3 had an Inhibition of binding (%) of 0%.
B4: the Inhibition of binding (%) was determined as 100%.
In turn, B5 gave an Inhibition of binding (%) of 100%.
Take B8: the Inhibition of binding (%) is 100%.
Still for that read-out and setting: the result for B6 reads 100%; that for B7, 0%.

A further assay has the same target. As to the kind of experiment: cross-inhibition of binding to HA; competitor: FLA3.14.
B1 returned an Inhibition of binding (%) of 0%.
B2 returned an Inhibition of binding (%) of 0%.
For B3, the Inhibition of binding (%) is 0%.
On the same count and under the same terms, the result for B4 reads 65%.
The molecule B5 came in with an Inhibition of binding (%) of 0%.
As for B8, the Inhibition of binding (%) turned out to be 0%.
On the same count and under the same terms, for B6 the value was 100%; for B7, 0%.

Another assay has the same target. As to the kind of experiment: cross-inhibition of binding to HA; competitor: FLD20.19.
In turn, B1 gave an Inhibition of binding (%) of 0%.
As to B2, the Inhibition of binding (%) came out at 100%.
Molecule B3 came in with an Inhibition of binding (%) of 100%.
For B4, the Inhibition of binding (%) stood at 100%.
For the molecule B5, the Inhibition of binding (%) was 100%.
B8 displayed an Inhibition of binding (%) of 100%.
B6 came in with an Inhibition of binding (%) of 0%.
On the same count and under the same terms, the result for B7 reads 100%.
